Source: patent publication US20030228663A1

Target: HER2 extracellular domain (HER2-ECD) (human) (UniProt P04626)
Experiment: SPR (BIAcore 2000 or 3000), Fab over immobilized HER2-ECD, 37 °C, KD = koff/kon

Kd: 0.38 nM
Substance: hu4D5-8 Fab M.7 (N30(VL)S+H91(VL)F+Y92(VL)W+T94(VL)S+D98(VH)W+Y100a(VH)F+Y102(VH)V)
